Data on nine molecules can be found in article PMC11052181, “The Post-Transcriptional Regulatory Protein CsrA Amplifies Its Targetome through Direct Interactions with Stress-Response Regulatory Hubs: The EvgA and AcnA Cases”.

Common to all, as to details: protein: recombinant; chain copies: 2; label: 5'-32P
The target in series [1] is T1, CsrA (Escherichia coli, UniProt P69913 1-61). Briefly: EMSA; excess yeast total RNA; 0.5 nM 32P-RNA, 0-300 nM CsrA, 30 min, excess yeast total RNA; 10% native PAGE, 0.5x TBE, 4 C, 170 V; binding buffer, pH and temperature not stated (as in refs).
Series [2] deals with T1, CsrA. The description is as above. The source holds these as a separate data set.
The target in series [3] is T1, CsrA. Described as above. The source holds these as a separate data set.
In series [4] the target is T1, CsrA. Briefly: EMSA; excess yeast total RNA; reduced curve amplitude; 0.5 nM 32P-RNA, 0-300 nM CsrA, 30 min, excess yeast total RNA; 10% native PAGE, 0.5x TBE, 4 C, 170 V; binding buffer, pH and temperature not stated (as in refs).

T1 sequence (P69913 whole entry): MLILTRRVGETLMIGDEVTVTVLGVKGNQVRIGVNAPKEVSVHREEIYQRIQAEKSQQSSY

B1: acnA leader WT (T7-acnA-WT) (structured_RNA)
RNA: GGGAUAAUUCACCCUGAAGAGAAUCAGGGCUUCGCAACCCUGUCAUUAAGGAGGAGCUAUGUCGUCAACCCUACGAGAAGCCAGUAAGGACACGUUGCAGGCCAAAGAUAAAACUUACCACUACUACAGCCUGCCGCUUGCUGCUAAAUCACUGGGCG
On to B1, for which the Kd with CsrA [1] was approximately 90.9 nM.

B2: acnA PBS-I mutant (mut1, GGAGGA to CCACCA) (structured_RNA)
RNA: GGGAUAAUUCACCCUGAAGAGAAUCAGGGCUUCGCAACCCUGUCAUUAACCACCAGCUAUGUGGUCAACCCUACGAGAAGCCAGUAAGGACACGUUGCAGGCCAAAGAUAAAACUUACCACUACUACAGCCUGCCGCUUGCUGCUAAAUCACUGGGCG
For the molecule B2, in the series with CsrA [2], the binding signal was approximately 1.7 fold increase in Kd vs WT.

B3: acnA PBS-III mutant (mut3, AAAGAU to UAACUU) (structured_RNA)
RNA: GGGAUAAUUCACCCUGAAGAGAAUCAGGGCUUCGCAACCCUGUCAUUAAGGAGGAGCUAUGUCGUCAACCCUACGAGAAGCCAGUAAGGACACGUUGCAGGCCUAACUUAAAACUUACCACUACUACAGCCUGCCGCUUGCUGCUAAAUCACUGGGCG
In the case of B3, in the series with CsrA [2], the binding signal was approximately 1.6 fold increase in Kd vs WT.

B4: acnA PBS-I & PBS-III double mutant (dm-1&3) (structured_RNA)
RNA: GGGAUAAUUCACCCUGAAGAGAAUCAGGGCUUCGCAACCCUGUCAUUAACCACCAGCUAUGUGGUCAACCCUACGAGAAGCCAGUAAGGACACGUUGCAGGCCUAACUUAAAACUUACCACUACUACAGCCUGCCGCUUGCUGCUAAAUCACUGGGCG
For the molecule B4, in the series with CsrA [2], the binding signal is approximately 2 fold increase in Kd vs WT.

B5: evgA leader WT (T7-evgA-WT) (structured_RNA)
RNA: GGGAUAAUUACUUGUCGAAUUAUCUUAAAGGAAGCUCAGAUUUUCUUAUUUUUAUUGAGAAAAUGAGAUGACGCCUUAUGUCUGUAUUACUACAGGGAGAAGGGAGAUGCUUCAUUGCAAAGGGAAUAAUCUAUGAACGCAAUAAUUAUUGAUGACCAUCCUCUUGCUAUCGCAGCAAUUCGUAAUUUAUUGAUCAAAAACGAUAUUGAAAUCUUAGCAGAGUUGACUGAAG
On to B5, for which the Kd with CsrA [1] was approximately 83.7 nM.

B6: evgA GGA2 mutant (GGA to AGA) (structured_RNA)
RNA: GGGAUAAUUACUUGUCGAAUUAUCUUAAAGGAAGCUCAGAUUUUCUUAUUUUUAUUGAGAAAAUGAGAUGACGCCUUAUGUCUGUAUUACUACAGAGAGAAGGGAGAUGCUUCAUUGCAAAGGGAAUAAUCUAUGAACGCAAUAAUUAUUGAUGACCAUCCUCUUGCUAUCGCAGCAAUUCGUAAUUUAUUGAUCAAAAACGAUAUUGAAAUCUUAGCAGAGUUGACUGAAG
As to B6, the binding signal with CsrA [3] was approximately 1.6 fold increase in Kd vs WT.

B7: evgA no GGAs mutant (structured_RNA)
RNA: GGGAUAAUUACUUGUCGAAUUAUCGUAAACGAAGCUCAGAUUUUCUUAUUUUUAUUGAGAAAAUGAGAUGACGGCUUAUGUCUGUAUUACUACAGAGAGAAGCGAGAUGCUUCAUUGCAAAAGGGGUAAUCUAUGAACGCAAUAAUUAUUGAUGACCAUCCUCUUGCUAUCGCAGCAAUUCGUAAUUUAUUGAUCAAAAACGAUAUUGAAAUCUUAGCAGAGUUGACUGAAG
On to B7, for which, in the series with CsrA [4], the binding signal was approximately 2.8 fold increase in Kd vs WT.

B8: evgA GGA4 mutant (AGGGAA to AAGGGG) (structured_RNA)
RNA: GGGAUAAUUACUUGUCGAAUUAUCUUAAAGGAAGCUCAGAUUUUCUUAUUUUUAUUGAGAAAAUGAGAUGACGCCUUAUGUCUGUAUUACUACAGGGAGAAGGGAGAUGCUUCAUUGCAAAAGGGGUAAUCUAUGAACGCAAUAAUUAUUGAUGACCAUCCUCUUGCUAUCGCAGCAAUUCGUAAUUUAUUGAUCAAAAACGAUAUUGAAAUCUUAGCAGAGUUGACUGAAG
As to B8, in the series with CsrA [3], the binding signal is approximately 2 fold increase in Kd vs WT.

B9: evgA all pred. sites mutant (PBS-I + PBS-II) (structured_RNA)
RNA: GGGAUAAUUACUUGUCGAAUUUUCGUAAACGAAGCUCAGAUUUUCUUAUUUUUAUUGAGAAAAUAAGAUCACGCCUUAUGUCUGUAUUACUACAGGGAGAAGGGAGAUGCUUCAUUGCAAAGGGAAUAAUCUAUGAACCCUAUAAUUAUUGAUGACCAUCCUCUUGCUAUCGCAGCAAUUCGUAAUUUAUUGAUCAAAAACGAUAUUGAAAUCUUAGCAGAGUUGACUGAAG
Consider B9, for which the binding signal with CsrA [3] was approximately 1.2 fold increase in Kd vs WT.
